The numbers were not newly measured in paper PMC7460888, which cites them from elsewhere.

The data set deals with SARS-CoV-2 spike RBD RBD (SARS-CoV-2) (UniProt P0DTC2).

Take SBP1 (ACE2 alpha1 helix peptide): the Kd is 47 nM.
